According to IntAct's records for PubMed 8840966:

B1: Cyclin-dependent kinase 4 inhibitor C (Homo sapiens), P42773 (parent)
chain: MAEPWGNELASAAARGDLEQLTSLLQNNVNVNAQNGFGRTALQVMKLGNPEIARRLLLRGANPDLKDRTGFAVIHDAARAGFLDTLQTLLEFQADVNIEDNEGNLPLHLAAKEGHLRVVEFLVKHTASNVGHRNHKGDTACDLARLYGRNEVVSLMQANGAGGATNLQ

Variants of: B1
Details: with cdk6_human CDK6, Q00534
Sequence of cdk6_human CDK6, Q00534 (Q00534 whole entry): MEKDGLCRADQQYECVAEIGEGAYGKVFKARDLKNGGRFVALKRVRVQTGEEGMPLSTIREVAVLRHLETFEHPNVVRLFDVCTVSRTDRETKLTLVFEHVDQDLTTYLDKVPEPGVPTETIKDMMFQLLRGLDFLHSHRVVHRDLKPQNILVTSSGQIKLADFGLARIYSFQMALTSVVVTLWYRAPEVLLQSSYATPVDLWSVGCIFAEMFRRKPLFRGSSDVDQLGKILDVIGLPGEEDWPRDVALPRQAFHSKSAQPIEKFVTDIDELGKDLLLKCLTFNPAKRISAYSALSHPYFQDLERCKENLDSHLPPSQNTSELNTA

Variant	effect of a mutation on the interaction
MAEPWGNELASAAARGDLEQLTSLLQNNVNVNAQNGFGRTALQVMKLGNPEIARRLLLRGANPDLKDRTGFPVIHDAARAGFLDTLQTLLEFQADVNIEDNEGNLPLHLAAKEGHLRVVEFLVKHTASNVGHRNHKGDTACDLARLYGRNEVVSLMQANGAGGATNLQ [A72P]	disrupting interaction
